In publication PMC6827286:
Positions count from the first letter of the chain named. In names and notes the source's numbering stands.

T1: colFD-NL
T1 chain: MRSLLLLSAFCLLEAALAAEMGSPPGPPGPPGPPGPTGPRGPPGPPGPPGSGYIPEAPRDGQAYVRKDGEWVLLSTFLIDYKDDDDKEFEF

B1: Hsp47-HT (natural protein)
chain: AEVKKPLEAAAPGTAEKLSSKATTLAERSTGLAFSLYQAMAKDQAVENILLSPLVVASSLGLVSLGGKATTASQAKAVLSAEKLRDEEVHTGLGELLRSLSNSTARNVTWKLGSRLYGPSSVSFADDFVRSSKQHYNCEHSKINFRDKRSALQSINEWASQTTDGKLPEVTKDVERTDGALLVNAMFFKPHWDEKFHHKMVDNRGFMVTRSYTVGVTMMHRTGLYNYYDDEKEKLQMVEMPLAHKLSSLIILMPHHVEPLERLEKLLTKEQLKAWMGKMQKKAVAISLPKGVVEVTHDLQKHLAGLGLTEAIDKNKADLSRMSGKKDLYLASVFHATAFEWDTEGNPFDQDIYGREELRSPKLFYADHPFIFLVRDNQSGSLLFIGRLVRPKGDKMRDEL
modifications: HaloTag fluorescent ligand 618 on the HaloTag
B2: Hsp47-HT, P19324 Y353A (protein)
chain: B1 chain with Y353A
B3: Hsp47-HT, P19324 R355A (protein)
chain: B1 chain with R355A
B4: Hsp47-HT, P19324 I352A (protein)
chain: B1 chain with I352A
B5: Hsp47-HT, P19324 E356A (protein)
chain: B1 chain with E356A
B6: Hsp47-HT, P19324 D351A (protein)
chain: B1 chain with D351A
B7: Hsp47-HT, P19324 Q350A (protein)
chain: B1 chain with Q350A
B8: Hsp47-HT, P19324 I352L (protein)
chain: B1 chain with I352L
B9: Hsp47-HT, P19324 Y353L (protein)
chain: B1 chain with Y353L
B10: Hsp47-HT, P19324 I352F (protein)
chain: B1 chain with I352F
B11: Hsp47-HT, P19324 I352R (protein)
chain: B1 chain with I352R
B12: Hsp47-HT, P19324 Y353R (protein)
chain: B1 chain with Y353R
B13: Hsp47-HT, P19324 Y353F (protein)
chain: B1 chain with Y353F
B14: Hsp47-HT, P19324 Y353E (protein)
chain: B1 chain with Y353E
B15: Hsp47-HT, P19324 I352E (protein)
chain: B1 chain with I352E
B16: recombinant mouse Hsp47 (rmHsp47) I352A (natural protein)
chain: B1 chain with I352A
B17: recombinant mouse Hsp47 (rmHsp47) Y353A (natural protein)
chain: B1 chain with Y353A
B18: recombinant mouse Hsp47 (rmHsp47) WT (natural protein)
chain: B1 chain

The binders below were run against colFD-NL (bacteriophage T4) (assay: FRET or BRET; NanoBRET in the ER of living, transiently transfected HeLa cells; colFD-NL donor, Hsp47-HT with HT ligand 618 acceptor; 37 °C). Conditions: not given.

Binder	BRET ratio (donor to acceptor 1:100, HeLa) [mBU]
B1	25

What follows are binders tested against colFD-NL (bacteriophage T4) (assay: FRET or BRET; NanoBRET in the ER of living, transiently transfected HEK293 cells; colFD-NL (NanoLuc) donor, Hsp47-HT with HT ligand 618 (20-100 nM) acceptor; cells washed, furimazine added, 37 °C; BRET ratio 618/460 nm (mBU); some panels with Col003 and derivatives (2 h) or α,α-dipyridyl; the cell line is not named for every panel). Conditions: not given.

Binder	BRET ratio (donor to acceptor 1:50, HEK293) [mBU]
B1	40

Molecular target: T1, colFD-NL
Experiment: BRET
Conditions: chain shown with the change; in the ER of HEK293 cells; n = 4; parent: est. 100; read off a plot

Binder	percent of parent [%]
B2	84
B3	96
B4	86
B5	95
B6	100
B7	100

Molecular target: T1, colFD-NL
Experiment: BRET
Conditions: chain shown with the change; in the ER of HEK293 cells; n = 4; parent: est. 100; read off a plot
Remark: another data set of the same source

Binder	percent of parent [%]
B2	83
B4	85
B8	92
B9	82
B10	95
B11	81
B12	74
B13	88
B14	77
B15	83

What follows are binders tested against Collagen (pig's skin type I-C (Nitta Gelatin Inc.)) (pig) (assay: SPR; Biacore T200; collagen amine-coupled to a CM5 chip (∼2,000 response units), rmHsp47 injected; 10 mM HEPES, 0.15 M NaCl, 0.05% surfactant P20, pH 7.4; 25 °C; kobs linearization method (Anabel)). Conditions: not given.

Binder	Kd [µM]
B16	3.3
B17	3.6
B18	1.5
